± gives the uncertainty stated by the source.
Experiment: self-splicing fitness, log relative to wild type (ln ratio); higher = more splicing; Tetrahymena group I intron in knt gene, E. coli kanamycin selection, DiMSum; sequences stand for … in CUCUCU…GGAGGGAAAAGUUAUCAGGCAUGCACCUGGUAGCUAGUCUUUAAACCAAUAGAUUGCAUCGGUUUAAAAGGCAAGACCGUCAAAUUGCGGGAAAGGGGUCAACAGCCGUUCAGUACCAAGUCUCAGGGGAAACUUUGAGAUGGCCUUGCAAAGGGUAUGGUAAUAAGCUGACGGACAUGGUCCUAACCACGCAGCCAAGUCCUAAGUCAACAGAUCUUCUGUUGAUAUGGAUGCAGUUCACAGACUAAAUGUCGGUCGGGGAAGAUGUAUUCUUCUCAUAAGAUAUAGUCGGACCUCUCCUUAAUGGGAGCUAGCGGAUGAAGUGAUGCAACACUGGAGCCGCUGGGAACUAAUUUGUAUGCGAAAGUAUAUUGAUUAGUUUUGGAGUACUCGUGGUCG
Outline: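 Fitness was computed with DiMSum as the error-weighted combination of replicate fold changes, kanamycin versus none, each normalised to wild type. The library randomised all eight intron nucleotides of the P1ex region, with the intron placed in the knt kanamycin-resistance gene on pET-22b(+) in E. coli BL21(DE3). Six replicate transformations were grown overnight at 37°C or 30°C on LB agar with or without 25 μg/mL kanamycin, plus 100 μg/mL carbenicillin, 50 μM IPTG and 0.2% rhamnose. Pooled colonies were amplicon-sequenced on an Illumina HiSeq 2500.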

Row | Sequence | self-splicing fitness (ln) (30 °C) | self-splicing fitness (ln) (37 °C)
1 | ACCUAGCAAUAUUACGUGAG | -0.357 ± 0.048 | -0.0328 ± 0.061
2 | ACCUAGCAAUAUUACGUGCU | -2.56 ± 0.092 | -1.31 ± 0.098
3 | ACCUAGCAAUAUUACGUUCA | -1.4 ± 0.099 | -1.05 ± 0.12
4 | ACCUAGCAAUAUUACGUUCC | -1.5 ± 0.086 | -0.914 ± 0.12
5 | ACGAAGCAAUAUUACGAAAU | -3.34 ± 0.2 | -1.5 ± 0.17
6 | ACGAAGCAAUAUUACGAACG | -1.3 ± 0.091 | -0.288 ± 0.11
7 | ACGAAGCAAUAUUACGAACU | -0.572 ± 0.084 | -0.697 ± 0.093
8 | ACGAAGCAAUAUUACGAGGG | -3.54 ± 0.17 | -3.26 ± 0.3
9 | ACGAAGCAAUAUUACGAUUG | -2.46 ± 0.14 | -0.909 ± 0.15
10 | ACGAAGCAAUAUUACGCACC | -0.755 ± 0.16 | -0.0218 ± 0.22
11 | ACGAAGCAAUAUUACGCAGU | -3.29 ± 0.17 | -2.5 ± 0.2
12 | ACGAAGCAAUAUUACGCCCU | -0.468 ± 0.1 | 0.19 ± 0.12
13 | ACGAAGCAAUAUUACGCCUA | -1.93 ± 0.15 | -1.1 ± 0.12
14 | ACGAAGCAAUAUUACGCGAA | -2.07 ± 0.1 | -0.608 ± 0.097
15 | ACGAAGCAAUAUUACGCUUA | -1.81 ± 0.087 | -0.374 ± 0.083
16 | ACGAAGCAAUAUUACGCUUG | -1.4 ± 0.086 | -0.259 ± 0.098
17 | ACGAAGCAAUAUUACGGACC | -0.399 ± 0.17 | -0.661 ± 0.26
18 | ACGAAGCAAUAUUACGGAGG | -2.97 ± 0.16 | -1.69 ± 0.14
19 | ACGAAGCAAUAUUACGGAUC | -3.59 ± 0.12 | -1.47 ± 0.096
20 | ACGAAGCAAUAUUACGGCCC | -1.25 ± 0.2 | 0.0496 ± 0.26
21 | ACGAAGCAAUAUUACGGGUA | -1.72 ± 0.25 | -2.08 ± 0.17
22 | ACGAAGCAAUAUUACGGGUC | -4.49 ± 0.29 | -2.34 ± 0.23
23 | ACGAAGCAAUAUUACGUGGU | -3.5 ± 0.16 | -2.95 ± 0.15
24 | ACGAAGCAAUAUUACGUUAU | -3.54 ± 0.13 | -1.1 ± 0.1

Row | Sequence | self-splicing fitness (ln) (30 °C) | self-splicing fitness (ln) (37 °C)
25 | ACGCAGCAAUAUUACGAAAU | -2.55 ± 0.13 | -1.7 ± 0.15
26 | ACGCAGCAAUAUUACGAACU | -0.619 ± 0.062 | -0.501 ± 0.081
27 | ACGCAGCAAUAUUACGAAUA | – | -2.19 ± 0.23
28 | ACGCAGCAAUAUUACGACGA | -0.25 ± 0.1 | 0.113 ± 0.12
29 | ACGCAGCAAUAUUACGACGC | 0.036 ± 0.062 | 0.169 ± 0.082
30 | ACGCAGCAAUAUUACGACGG | -0.871 ± 0.051 | -0.191 ± 0.073
31 | ACGCAGCAAUAUUACGACGU | -3.11 ± 0.1 | -0.828 ± 0.097
32 | ACGCAGCAAUAUUACGAGAG | -3.3 ± 0.11 | -1.78 ± 0.1
33 | ACGCAGCAAUAUUACGAGCG | -1.54 ± 0.083 | -0.23 ± 0.1
34 | ACGCAGCAAUAUUACGAGGA | -2.8 ± 0.16 | -2.26 ± 0.17
35 | ACGCAGCAAUAUUACGAUCC | -2.24 ± 0.15 | -1.09 ± 0.17
36 | ACGCAGCAAUAUUACGAUCG | -0.15 ± 0.049 | 0.252 ± 0.071
37 | ACGCAGCAAUAUUACGAUGC | -3.44 ± 0.27 | -1.56 ± 0.21
38 | ACGCAGCAAUAUUACGCAAU | -1.76 ± 0.11 | -1.85 ± 0.15
39 | ACGCAGCAAUAUUACGCCAG | -2.82 ± 0.22 | -2.07 ± 0.28
40 | ACGCAGCAAUAUUACGCCGU | -3.33 ± 0.2 | -2.74 ± 0.27
41 | ACGCAGCAAUAUUACGCUCC | – | -0.96 ± 0.18
42 | ACGCAGCAAUAUUACGGAAA | -2.7 ± 0.33 | -0.506 ± 0.21
43 | ACGCAGCAAUAUUACGGACC | -1.95 ± 0.15 | 0.559 ± 0.18
44 | ACGCAGCAAUAUUACGGAUC | -1.86 ± 0.093 | -0.813 ± 0.13
45 | ACGCAGCAAUAUUACGGCAA | -0.804 ± 0.078 | -0.421 ± 0.084
46 | ACGCAGCAAUAUUACGGCAC | -0.763 ± 0.077 | -0.602 ± 0.11
47 | ACGCAGCAAUAUUACGGCUC | -0.489 ± 0.055 | -0.0273 ± 0.082
48 | ACGCAGCAAUAUUACGGGCC | -1.28 ± 0.091 | -0.893 ± 0.12

Source: the supplement of paper PMC7877785
